Experiment [1] deals with HRP-labelled Concavalin A (UniProt P02866). Nature of the experiment: capillary displacement of HRP-labelled Concavalin A from immobilised yeast mannoprotein; platform of Example 4; HRP substrate, spectrophotometer.
Experiment [2] shares this target. Nature of the experiment: capillary displacement of HRP-labelled Concavalin A from immobilised yeast mannoprotein; platform of Example 3; HRP substrate, spectrophotometer.
Experiment [3] has the same target. Nature of the experiment: capillary displacement of HRP-labelled Concavalin A from immobilised yeast mannoprotein; platform of Example 2; HRP substrate, spectrophotometer.

Chain of UniProt P02866 (P02866 30-281 limits assumed): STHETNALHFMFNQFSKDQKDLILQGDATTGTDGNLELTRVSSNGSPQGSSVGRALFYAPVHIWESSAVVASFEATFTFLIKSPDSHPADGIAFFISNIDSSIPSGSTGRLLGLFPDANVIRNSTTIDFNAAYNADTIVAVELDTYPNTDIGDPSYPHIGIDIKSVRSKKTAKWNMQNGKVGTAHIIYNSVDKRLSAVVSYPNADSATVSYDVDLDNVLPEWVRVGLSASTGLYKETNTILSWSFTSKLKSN

For the substance “polystyrene beads with immobilised yeast mannoprotein”, the absorbance at 446-456 nm (absorbance (446 nm)) in experiment [1] was above 4; in experiment [2], 2.22. The substance also showed an absorbance at 446-456 nm (absorbance (456 nm)) in experiment [3] of 3.

As to yeast mannoprotein, in experiment [1], the absorbance at 446-456 nm (absorbance (446 nm)) is 2.5. For the same substance, the absorbance at 446-456 nm (absorbance (448.5 nm)) in experiment [2] was 2.7.

These data come from patent US9696303.
